Consider 1 molecule from patent publication US9717715B2, “Method of combination therapy using an anti-C-Met antibody” (Samsung Electronics Co., Ltd., priority 2013, dated 2017).

One assay has as its target T1, c-Met in MKN45 cells (Homo sapiens, UniProt P08581).
T1 construct: MKN45 gastric cancer cells on which c-Met is expressed; endogenous in cells; host or cells: MKN45 gastric cancer cells (JCRB)
Description: Degree of degradation of c-Met (total c-Met ELISA). The class given is cell-based. Particulars: 5 ug/ml, 24 hours, FIG. 9B. The procedure: In order to identify anti-cancer effects of the 4 types of antibodies having improved affinities, as prepared in Example 5, the degree of degradation of c-Met bound to the antibodies was evaluated. A relative total amount of c-Met was obtained by measuring the change in the total amount of c-Met after the antibody binds to c-Met to degrade c-Met via internalization, and thus the efficacy of the antibody was evaluated.
MKN45 cells (2×10^5 cells/ml) and each of the antibodies (5 ug/ml) were simultaneously introduced to a 96-well plate and incubated for 24 hours. Then, lysis of the cells treated with antibodies was performed and the change in the total amount of c-Met was measured using a Human total HGF R/c-Met ELISA KIT (R&D systems, DYC358) and analyzed.
In order to identify anti-cancer effects of the 3 types of antibodies having improved affinities, as prepared in Example 11, the degree of degradation of c-Met bound to the antibody was evaluated. MKN45 cells (2×10^5 cells/ml) and each of the antibodies (5 ug/ml) were simultaneously introduced to a 96-well plate and incubated for 24 hours. Then, lysis of the cells treated with antibodies was performed and a change of the total amount of c-Met was measured using a Human total HGF R/c-Met ELISA KIT (R&D systems, DYC358) and analyzed.

Assay [1] concerns Akt phosphorylation in Caki-1 cells. Put plainly: Akt phosphorylation (phospho-AKT1 Ser473 sandwich ELISA). It is filed as cell-based. The note with it: 5 ug/ml, FIG. 8B. The text has this: Cellular processes regulated by Akt include cell proliferation, cell survival, cell size control, and response to nutrient availability, intermediary metabolism, angiogenesis, and tissue invasion. All these processes represent characteristics of cancer and many oncoproteins and tumor suppressors intersect in the Akt pathway, finely regulating cellular functions at the interface of signal transduction and classical metabolic regulation. Thus, as the content of phosphorylated Akt that is an active form increases, the activity of cancer cells increases. Here, the degree of inhibiting Akt phosphorylation by the 4 types of antibodies having improved affinities was evaluated.
To compare agonism of the 4 types of antibodies having improved affinities, as prepared in Example 5, Caki-1 cells (Korean Cell Line Bank) were used to confirm the degree of Akt phosphorylation. Mouse IgG was used as a negative control, and antibody 5D5 (a known agonist) was used as a positive control.
2×10^5 cells/ml of Caki-1 cells were introduced to a 96-well plate, and after 24 hours, each of 5 ug/ml of the antibodies was treated in serum free medium for 30 minutes. Lysis of the cells treated with the antibodies was performed and the degree of Akt phosphorylation was measured using a PathScan phospho-AKT1 (Ser473) chemiluminescent Sandwich ELISA kit (Cell Signaling, cat. no #7134S). […]
(In general: ELISA stands for enzyme-linked immunosorbent assay.)

T1 sequence (P08581 25-1390): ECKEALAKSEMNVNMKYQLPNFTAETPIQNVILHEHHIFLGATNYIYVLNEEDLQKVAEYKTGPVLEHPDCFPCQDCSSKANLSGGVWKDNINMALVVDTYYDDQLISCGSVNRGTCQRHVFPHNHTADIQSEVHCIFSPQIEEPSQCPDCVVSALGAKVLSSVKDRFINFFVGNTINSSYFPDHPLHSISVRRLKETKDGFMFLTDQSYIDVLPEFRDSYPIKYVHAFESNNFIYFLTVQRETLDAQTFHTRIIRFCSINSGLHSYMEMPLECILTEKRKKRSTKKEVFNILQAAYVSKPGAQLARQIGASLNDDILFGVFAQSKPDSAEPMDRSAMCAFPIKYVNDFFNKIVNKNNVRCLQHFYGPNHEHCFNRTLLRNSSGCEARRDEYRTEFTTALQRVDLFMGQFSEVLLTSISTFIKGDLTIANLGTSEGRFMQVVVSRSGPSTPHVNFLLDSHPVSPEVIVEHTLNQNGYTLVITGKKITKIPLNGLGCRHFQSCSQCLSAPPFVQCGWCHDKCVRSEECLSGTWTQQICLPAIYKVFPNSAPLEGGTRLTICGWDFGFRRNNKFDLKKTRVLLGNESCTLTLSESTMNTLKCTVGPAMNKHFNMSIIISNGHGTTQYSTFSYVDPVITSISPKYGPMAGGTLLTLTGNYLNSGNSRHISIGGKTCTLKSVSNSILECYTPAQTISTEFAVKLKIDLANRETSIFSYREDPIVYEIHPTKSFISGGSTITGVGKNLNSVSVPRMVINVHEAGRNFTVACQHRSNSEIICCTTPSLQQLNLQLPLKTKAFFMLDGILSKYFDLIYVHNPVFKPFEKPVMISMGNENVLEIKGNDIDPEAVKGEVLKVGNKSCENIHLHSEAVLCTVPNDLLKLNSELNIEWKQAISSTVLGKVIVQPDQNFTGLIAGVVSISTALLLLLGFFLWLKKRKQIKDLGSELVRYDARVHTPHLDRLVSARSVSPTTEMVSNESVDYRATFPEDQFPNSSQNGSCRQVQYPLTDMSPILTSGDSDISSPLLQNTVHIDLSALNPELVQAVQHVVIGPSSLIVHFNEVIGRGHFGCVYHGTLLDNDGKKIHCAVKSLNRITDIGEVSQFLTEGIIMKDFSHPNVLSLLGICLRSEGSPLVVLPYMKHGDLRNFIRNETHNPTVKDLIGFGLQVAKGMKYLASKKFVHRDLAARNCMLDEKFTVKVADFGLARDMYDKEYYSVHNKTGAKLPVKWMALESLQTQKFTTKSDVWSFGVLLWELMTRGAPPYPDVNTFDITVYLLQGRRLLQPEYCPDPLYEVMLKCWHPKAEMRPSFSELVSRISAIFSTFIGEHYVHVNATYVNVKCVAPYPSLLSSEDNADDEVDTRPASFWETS

B1: L3-11Y: light chain SEQ ID NO: 73 (serine 27e replaced with tryptophan) and the heavy chain of huAbF46-H4-A1 (IgG2 Fc) (antibody)
heavy: EVQLVESGGGLVQPGGSLRLSCAASGFTFTDYYMSWVRQAPGKGLEWLGFIRNKANGYTTEYSASVKGRFTISRDNSKNTLYLQMNSLRAEDTAVYYCARDNWFAYWGQGTLVTVSSASTKGPSVFPLAPCSRSTSESTAALGCLVKDYFPEPVTVSWNSGALTSGVHTFPAVLQSSGLYSLSSVVTVPSSNFGTQTYTCNVDHKPSNTKVDKTVERKCCVECPPCPAPPVAGPSVFLFPPKPKDTLMISRTPEVTCVVVDVSHEDPEVQFNWYVDGVEVHNAKTKPREEQFNSTFRVVSVLTVVHQDWLNGKEYKCKVSNKGLPAPIEKTISKTKGQPREPQVYTLPPSREEMTKNQVSLTCLVKGFYPSDIAVEWESNGQPENNYKTTPPMLDSDGSFFLYSKLTVDKSRWQQGNVFSCSVMHEALHNHYTQKSLSLSPGK
light: DIQMTQSPSSLSASVGDRVTITCKSSQSLLAWGNQNNYLAWYQQKPGKAPKMLIIWASTRVSGVPSRFSGSGSGTDFTLTISSLQPEDFATYYCQQSYSRPYTFGQGTKVEIKRTVAAPSVFIFPPSDEQLKSGTASVVCLLNNFYPREAKVQWKVDNALQSGNSQESVTEQDSKDSTYSLSSTLTLSKADYEKHKVYACEVTHQGLSSPVTKSFNRGEC
With B1, the “activity of c-Met degradation compared to huAbF46-H4-A1 (IgG2 Fc)” value in the assay with c-Met in MKN45 cells is on record as “approximately equal activity of c-Met degradation”. The “activity of Akt phosphorylation inhibition compared to huAbF46-H4-A1 (IgG2 Fc)” value in assay [1] is given as “equal or higher activity of Akt phosphorylation inhibition”.
